Measurements reported in patent US20140349340A1 (DSM SINOCHEM PHARMACEUTICALS NETHERLANDS B V, published 2014).

Experiments:
Tcp11_M1_A = Tcp11_M1_A (Actinoplanes teichomyceticus); experiment: cell-based or functional assay
Tcp9_M1_AT = Tcp9_M1_AT (Actinoplanes teichomyceticus); experiment: cell-based or functional assay
Veg8_M1_A = Veg8_M1_A (uncultured soil bacterium); experiment: cell-based or functional assay
Veg8_M1_ATE = Veg8_M1_ATE (uncultured soil bacterium); experiment: His-tag (TALON) co-purification after co-expression in E. coli, SDS-PAGE
ComB_M1_A = ComB_M1_A (Streptomyces lavendulae); experiment: as above

Sequence of Tcp9_M1_AT (Actinoplanes teichomyceticus) (chain, as listed by the source limits assumed): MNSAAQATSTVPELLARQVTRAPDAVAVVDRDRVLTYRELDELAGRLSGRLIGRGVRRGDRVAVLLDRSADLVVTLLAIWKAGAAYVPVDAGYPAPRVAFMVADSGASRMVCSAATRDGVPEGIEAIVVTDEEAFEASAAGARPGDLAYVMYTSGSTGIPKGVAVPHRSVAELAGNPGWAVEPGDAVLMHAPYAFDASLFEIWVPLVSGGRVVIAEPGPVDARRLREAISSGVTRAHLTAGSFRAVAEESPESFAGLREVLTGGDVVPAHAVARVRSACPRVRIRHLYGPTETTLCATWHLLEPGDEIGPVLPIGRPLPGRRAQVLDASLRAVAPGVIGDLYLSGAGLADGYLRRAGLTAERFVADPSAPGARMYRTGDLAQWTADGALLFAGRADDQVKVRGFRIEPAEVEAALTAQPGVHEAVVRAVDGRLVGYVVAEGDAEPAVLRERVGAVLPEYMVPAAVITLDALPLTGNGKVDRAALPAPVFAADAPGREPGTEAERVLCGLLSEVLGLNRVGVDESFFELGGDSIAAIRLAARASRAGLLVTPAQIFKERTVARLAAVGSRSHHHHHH
Sequence of Veg8_M1_A (uncultured soil bacterium) (chain, as listed by the source): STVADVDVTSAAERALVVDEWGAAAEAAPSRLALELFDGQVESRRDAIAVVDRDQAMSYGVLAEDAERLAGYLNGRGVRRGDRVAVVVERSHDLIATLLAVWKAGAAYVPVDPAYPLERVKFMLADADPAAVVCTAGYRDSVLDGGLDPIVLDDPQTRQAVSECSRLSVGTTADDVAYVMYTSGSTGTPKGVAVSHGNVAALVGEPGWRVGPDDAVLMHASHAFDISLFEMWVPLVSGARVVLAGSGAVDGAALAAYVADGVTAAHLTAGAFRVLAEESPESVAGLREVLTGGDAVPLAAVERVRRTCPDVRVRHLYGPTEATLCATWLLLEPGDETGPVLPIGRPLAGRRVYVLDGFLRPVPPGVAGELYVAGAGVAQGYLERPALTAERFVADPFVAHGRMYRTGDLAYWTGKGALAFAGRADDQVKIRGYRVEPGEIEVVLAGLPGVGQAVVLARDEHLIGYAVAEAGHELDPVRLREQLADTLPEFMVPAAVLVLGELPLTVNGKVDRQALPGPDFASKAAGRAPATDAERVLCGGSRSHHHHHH
Sequence of Tcp11_M1_A (Actinoplanes teichomyceticus) (chain, as listed by the source): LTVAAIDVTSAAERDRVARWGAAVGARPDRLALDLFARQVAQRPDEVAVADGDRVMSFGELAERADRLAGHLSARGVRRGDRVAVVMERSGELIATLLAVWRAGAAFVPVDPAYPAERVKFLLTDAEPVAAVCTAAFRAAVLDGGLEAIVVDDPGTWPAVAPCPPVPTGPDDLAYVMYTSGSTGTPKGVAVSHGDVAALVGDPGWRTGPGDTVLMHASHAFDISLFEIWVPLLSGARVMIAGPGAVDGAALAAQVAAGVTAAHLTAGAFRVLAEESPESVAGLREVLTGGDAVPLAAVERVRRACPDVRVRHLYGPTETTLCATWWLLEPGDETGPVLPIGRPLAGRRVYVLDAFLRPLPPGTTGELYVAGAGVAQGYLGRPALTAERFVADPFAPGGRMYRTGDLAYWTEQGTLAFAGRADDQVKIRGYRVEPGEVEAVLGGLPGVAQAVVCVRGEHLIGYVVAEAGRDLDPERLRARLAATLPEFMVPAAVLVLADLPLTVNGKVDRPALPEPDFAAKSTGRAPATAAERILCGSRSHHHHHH

| Binder | Formed PPi (PPi release assay), D-HPG 0.1 mM (Tcp11_M1_A) [mM/min/mM enzyme] | Formed PPi (PPi release assay), D-HPG 1 mM (Tcp11_M1_A) [mM/min/mM enzyme] | Formed PPi (PPi release assay), D-PG 1 mM (Tcp11_M1_A) [mM/min/mM enzyme] | Formed PPi (PPi release assay), L-HPG 0.1 mM (Tcp11_M1_A) [mM/min/mM enzyme] | Formed PPi (PPi release assay), L-HPG 1 mM (Tcp11_M1_A) [mM/min/mM enzyme] | Formed PPi (PPi release assay), L-PG 1 mM (Tcp11_M1_A) [mM/min/mM enzyme] | Formed PPi (PPi release assay), D-HPG 0.1 mM (Tcp9_M1_AT) [mM/min/mM enzyme] | Formed PPi (PPi release assay), D-HPG 1 mM (Tcp9_M1_AT) [mM/min/mM enzyme] | Formed PPi (PPi release assay), D-PG 1 mM (Tcp9_M1_AT) [mM/min/mM enzyme] | Formed PPi (PPi release assay), L-HPG 0.1 mM (Tcp9_M1_AT) [mM/min/mM enzyme] | Formed PPi (PPi release assay), L-HPG 1 mM (Tcp9_M1_AT) [mM/min/mM enzyme] | Formed PPi (PPi release assay), L-PG 1 mM (Tcp9_M1_AT) [mM/min/mM enzyme] | Formed PPi (PPi release assay), D-HPG 0.1 mM (Veg8_M1_A) [mM/min/mM enzyme] | Formed PPi (PPi release assay), D-HPG 1 mM (Veg8_M1_A) [mM/min/mM enzyme] | Formed PPi (PPi release assay), D-PG 1 mM (Veg8_M1_A) [mM/min/mM enzyme] | Formed PPi (PPi release assay), L-HPG 0.1 mM (Veg8_M1_A) [mM/min/mM enzyme] | Formed PPi (PPi release assay), L-HPG 1 mM (Veg8_M1_A) [mM/min/mM enzyme] | Formed PPi (PPi release assay), L-PG 1 mM (Veg8_M1_A) [mM/min/mM enzyme] | binding result (Veg8_M1_ATE) | binding result (ComB_M1_A) |
| --- | --- | --- | --- | --- | --- | --- | --- | --- | --- | --- | --- | --- | --- | --- | --- | --- | --- | --- | --- | --- |
| MbtH-like protein Tcp13 (other, Expressed from pACYCtac-Tcp13 in E. coli without a His-tag) MTNPFDNEDGSFLVLVNGEGQHSLWPAFAEVPDGWTGVHGPASRQDCLGYVEQNWTDLRPKSLISQISD | 0.08 | 0.66 | 0 | 0.8 | 1.03 | 0.17 | 2.07 | 5.28 | 0.05 | 1.18 | 1.16 | 1.32 | 0.14 | 0.92 | 0.01 | 0.56 | 0.59 | 0.17 | binds | binds |
| MbtH-like protein Tcp17 (other, Expressed from pACYCtac-Tcp17 in E. coli without a His-tag) MTNPFDNEDGSFLVLVNGEGQHSLWPAFAEVPDGWTGVHGPASRQDCLGYVEQNWTDLRPRSLVEQADA | 0.11 | 0.63 | 0.04 | 0.95 | 1.04 | 0.23 | 1.71 | 4.63 | 0.05 | 1.2 | 1.34 | 1.44 | 0.17 | 1.03 | 0.02 | 0.7 | 0.64 | 0.14 | binds | binds |
| MbtH-like protein VMbtH (other, Expressed from pACYCtac-VMbtH in E. coli without a His-tag) MTNPFDNEDGTFFVLVNDEGQHSLWPTFAEVPAGWTRVHGEATRQECLAYVEENWTDLRPKSLIQALGA | 0 | 0.86 | 0 | 1.38 | 1.54 | 0.09 | 3.72 | 8.44 | 0.07 | 1.23 | 1.4 | 2.32 | 0.18 | 1.39 | 0.02 | 0.61 | 0.61 | 0.2 | binds | binds |
